Data reported in US7375083B2, “Pharmaceutical compositions for prevention of overdose or abuse” (Shire LLC, priority 2003, dated 2008).
Where a SMILES comes first, the peptide text is derived from it. The star is where a group is joined. X1 = COc1ccc2c3c1O[C@H]1C(O*)=CC[C@H]4[C@@H](C2)N(C)CC[C@]314

Columns and labels:
[1] = Oral bioavailability in rats at escalating doses, LC/MS/MS; settings: rat
[2] = Oral bioavailability of hydrocodone conjugates in rats, LC/MS/MS; settings: for AUC (ng/ml h) 0-8 h / Cmax: hydrocodone plus hydromorphone; for Percent HC (AUC) / Percent HC (Cmax): relative to hydrocodone bitartrate; for Percent HC + HM (AUC) / Percent HC + HM (Cmax): relative to parameter following hydrocodone bitartrate
[3] = male, Sprague-Dawley, in vivo, po, 3 mg/kg
[4] = male, Sprague-Dawley, in vivo, po, 6 mg/kg
[5] = male, Sprague-Dawley, in vivo, po, 12 mg/kg
[6] = male, Sprague-Dawley, in vivo, po, 60 mg/kg
[7] = oral, 1 mg/kg hydrocodone base content
[8] = oral, 1 mg/kg hydrocodone base content, 0 h
[9] = oral, 1 mg/kg hydrocodone base content, 0.1 h
[10] = oral, 1 mg/kg hydrocodone base content, 1.0 h
[11] = oral, 1 mg/kg hydrocodone base content, 2.0 h
[12] = oral, 1 mg/kg hydrocodone base content, 4.0 h
[13] = oral, 2 mg/kg hydrocodone base content
[14] = oral, 2 mg/kg hydrocodone base content, 0 h
[15] = oral, 2 mg/kg hydrocodone base content, 0.1 h
[16] = oral, 2 mg/kg hydrocodone base content, 0.5 h
[17] = oral, 2 mg/kg hydrocodone base content, 1.0 h
[18] = oral, 2 mg/kg hydrocodone base content, 2.0 h
[19] = oral, 2 mg/kg hydrocodone base content, 4.0 h
[20] = oral, 5 mg/kg hydrocodone base content
[21] = oral, 5 mg/kg hydrocodone base content, 0 h
[22] = oral, 5 mg/kg hydrocodone base content, 0.1 h
[23] = oral, 5 mg/kg hydrocodone base content, 0.5 h
[24] = oral, 5 mg/kg hydrocodone base content, 1.0 h
[25] = oral, 5 mg/kg hydrocodone base content, 2.0 h
[26] = oral, 5 mg/kg hydrocodone base content, 4.0 h
[27] = oral, 25 mg/kg hydrocodone base content
[28] = oral, 25 mg/kg hydrocodone base content, 0 h
[29] = oral, 25 mg/kg hydrocodone base content, 0.1 h
[30] = oral, 25 mg/kg hydrocodone base content, 0.5 h
[31] = oral, 25 mg/kg hydrocodone base content, 1.0 h
[32] = oral, 25 mg/kg hydrocodone base content, 2.0 h
[33] = oral, 25 mg/kg hydrocodone base content, 4.0 h

CC(Cc1ccccc1)NC(=O)C(N)CCCCN [L-lysine-d-amphetamine, 2,6-diaminohexanoic acid-(1-methyl-2-phenylethyl)-amide]
Tmax ([1]; male, Sprague-Dawley, in vivo, po): 0.25 to 3 h | AUC(0-t) [1, 3]: 330 ng·h/mL | Cmax [1, 3]: 135 ng/mL | Tmax [1, 3]: 1.5 h | AUC(0-t) [1, 4]: 1160 ng·h/mL | Cmax [1, 4]: 677 ng/mL | Tmax [1, 4]: 0.25 h | AUC(0-inf) [1, 5]: 4510 ng·h/mL | AUC(0-t) [1, 5]: 4240 ng·h/mL | Cmax [1, 5]: 856 ng/mL | Tmax [1, 5]: 1 h | AUC(0-t) [1, 6]: 8230 ng·h/mL | Cmax [1, 6]: 1870 ng/mL | Tmax [1, 6]: 3 h | Tmax ([1]; male, Sprague-Dawley, in vivo, po, […]): 0.25 h | Cmax of d-amphetamine compared to d-amphetamine sulfate ([1]; oral, 1.5 to 6 mg/kg): reduced by approximately half

CC[C@H](C)[C@H](NC(=O)[C@H](Cc1ccccc1)NC(=O)[C@H](Cc1ccccc1)NC(=O)[C@H](Cc1ccc(O)cc1)NC(=O)[C@@H](N)Cc1ccc(O)cc1)C(=O)OC1=CC[C@H]2[C@H]3Cc4ccc(OC)c5c4[C@@]2(CCN3C)[C@H]1O5 [YYFFI[SEQ ID NO: 8]-HC, Tyr-Tyr-Phe-Phe-Ile[SEQ ID NO: 8]-(6-O)-Hydrocodone] (H-YYFFI-X1)
Percent Decrease 1 mg/kg vs. 5 mg/kg AUC ([2]; oral bioavailability): 15% | Percent Decrease 1 mg/kg vs. 5 mg/kg Cmax ([2]; oral bioavailability): 23% | hydrocodone plus hydromorphone concentration ([2]; oral, 1 mg/kg dose, 0.5 Hours): 7 ng/mL | hydrocodone plus hydromorphone concentration ([2]; oral, 1 mg/kg dose, 1.0 Hours): 3.7 ng/mL | hydrocodone plus hydromorphone concentration ([2]; oral, 1 mg/kg dose, 1.5 Hours): 4.3 ng/mL | hydrocodone plus hydromorphone concentration ([2]; oral, 1 mg/kg dose, 3 Hours): 1.4 ng/mL | hydrocodone plus hydromorphone concentration ([2]; oral, 1 mg/kg dose, 5 Hours): 1.1 ng/mL | hydrocodone plus hydromorphone concentration ([2]; oral, 1 mg/kg dose, 8 Hours): 0 ng/mL | AUC (ng/ml h) 0-8 h ([2]; oral, 1 mg/kg dose): 14.9 ng·h/mL | Cmax ([2]; oral, 1 mg/kg dose): 7 ng/mL | Percent HC (AUC) ([2]; oral, 1 mg/kg dose): 110% | Percent HC (Cmax) ([2]; oral, 1 mg/kg dose): 81% | Hydrocodone AUC [2, 7]: 26.3 | Hydrocodone Cmax [2, 7]: 20.3 ng/mL | Hydrocodone plus hydromorphone AUC, Percent HC relative to hydrocodone bitartrate [2, 7]: 64% | Hydrocodone plus hydromorphone Cmax [2, 7]: 20.8 ng/mL | Hydrocodone plus hydromorphone Cmax, Percent HC relative to hydrocodone bitartrate [2, 7]: 18% | Hydromorphone AUC, Percent HM relative to hydrocodone bitartrate [2, 7]: 97% | Hydromorphone Cmax [2, 7]: 2.9 ng/mL | Hydromorphone Cmax, Percent HM relative to hydrocodone bitartrate [2, 7]: 89% | Mean hydrocodone plus hydromorphone concentration [2, 8]: 0 ng/mL | Mean hydromorphone concentration [2, 8]: 0 ng/mL | Mean hydrocodone concentration ([2]; oral, 1 mg/kg hydrocodone base content, 0 Hours): 0 ng/mL | Mean hydrocodone concentration ([2]; oral, 1 mg/kg hydrocodone base content, 0.1 Hours): 20.3 ng/mL | Mean hydrocodone concentration ([2]; oral, 1 mg/kg hydrocodone base content, 0.5 Hours): 17.9 ng/mL | Mean hydrocodone concentration ([2]; oral, 1 mg/kg hydrocodone base content, 1.0 Hours): 10.4 ng/mL | Mean hydrocodone concentration ([2]; oral, 1 mg/kg hydrocodone base content, 2.0 Hours): 2.8 ng/mL | Mean hydrocodone concentration ([2]; oral, 1 mg/kg hydrocodone base content, 4.0 Hours): 1.2 ng/mL | Mean hydrocodone plus hydromorphone concentration [2, 9]: 20.6 ng/mL | Mean hydromorphone concentration [2, 9]: 0.27 ng/mL | Mean hydromorphone concentration ([2]; oral, 1 mg/kg hydrocodone base content, 0.5 h): 2.87 ng/mL | Mean hydrocodone plus hydromorphone concentration [2, 10]: 12.8 ng/mL | Mean hydromorphone concentration [2, 10]: 2.39 ng/mL | Mean hydrocodone plus hydromorphone concentration [2, 11]: 5.0 ng/mL | Mean hydromorphone concentration [2, 11]: 2.24 ng/mL | Mean hydrocodone plus hydromorphone concentration [2, 12]: 2.2 ng/mL | Mean hydromorphone concentration [2, 12]: 1.02 ng/mL | Percent HC + HM (AUC) ([2]; oral, 1 mg/kg): 58% | Percent HC + HM (Cmax) ([2]; oral, 1 mg/kg): 18% | Hydrocodone AUC [2, 13]: 48 | Hydrocodone Cmax [2, 13]: 35.2 ng/mL | Hydrocodone plus hydromorphone AUC, Percent HC relative to hydrocodone bitartrate [2, 13]: 103% | Hydrocodone plus hydromorphone Cmax [2, 13]: 36.3 ng/mL | Hydrocodone plus hydromorphone Cmax, Percent HC relative to hydrocodone bitartrate [2, 13]: 53% | Hydromorphone AUC, Percent HM relative to hydrocodone bitartrate [2, 13]: 61% | Hydromorphone Cmax [2, 13]: 8.7 ng/mL | Hydromorphone Cmax, Percent HM relative to hydrocodone bitartrate [2, 13]: 48% | Mean hydrocodone plus hydromorphone concentration [2, 14]: 0 ng/mL | Mean hydromorphone concentration [2, 14]: 0 ng/mL | Mean hydrocodone concentration ([2]; oral, 2 mg/kg hydrocodone base content, 0 Hours): 0 ng/mL | Mean hydrocodone concentration ([2]; oral, 2 mg/kg hydrocodone base content, 0.1 Hours): 35.2 ng/mL | Mean hydrocodone concentration ([2]; oral, 2 mg/kg hydrocodone base content, 0.5 Hours): 23 ng/mL | Mean hydrocodone concentration ([2]; oral, 2 mg/kg hydrocodone base content, 1.0 Hours): 14.4 ng/mL | Mean hydrocodone concentration ([2]; oral, 2 mg/kg hydrocodone base content, 2.0 Hours): 9.8 ng/mL | Mean hydrocodone concentration ([2]; oral, 2 mg/kg hydrocodone base content, 4.0 Hours): 3.3 ng/mL | Mean hydrocodone plus hydromorphone concentration [2, 15]: 36.3 ng/mL | Mean hydromorphone concentration [2, 15]: 1.13 ng/mL | Mean hydrocodone plus hydromorphone concentration [2, 16]: 31.7 ng/mL | Mean hydromorphone concentration [2, 16]: 8.74 ng/mL | Mean hydrocodone plus hydromorphone concentration [2, 17]: 18.0 ng/mL | Mean hydromorphone concentration [2, 17]: 3.63 ng/mL | Mean hydrocodone plus hydromorphone concentration [2, 18]: 13.2 ng/mL | Mean hydromorphone concentration [2, 18]: 3.41 ng/mL | Mean hydrocodone plus hydromorphone concentration [2, 19]: 4.2 ng/mL | Mean hydromorphone concentration [2, 19]: 0.88 ng/mL | Percent HC + HM (AUC) ([2]; oral, 2 mg/kg): 126% | Percent HC + HM (Cmax) ([2]; oral, 2 mg/kg): 58% | hydrocodone plus hydromorphone concentration ([2]; oral, 5 mg/kg dose, 0.5 Hours): 46 ng/mL | hydrocodone plus hydromorphone concentration ([2]; oral, 5 mg/kg dose, 1.0 Hours): 33 ng/mL | hydrocodone plus hydromorphone concentration ([2]; oral, 5 mg/kg dose, 1.5 Hours): 34 ng/mL | hydrocodone plus hydromorphone concentration ([2]; oral, 5 mg/kg dose, 3 Hours): 13 ng/mL | hydrocodone plus hydromorphone concentration ([2]; oral, 5 mg/kg dose, 5 Hours): 8.3 ng/mL | hydrocodone plus hydromorphone concentration ([2]; oral, 5 mg/kg dose, 8 Hours): 4.5 ng/mL | AUC (ng/ml h) 0-8 h ([2]; oral, 5 mg/kg dose): 105 ng·h/mL | Cmax ([2]; oral, 5 mg/kg dose): 46 ng/mL | Percent HC (AUC) ([2]; oral, 5 mg/kg dose): 86% | Percent HC (Cmax) ([2]; oral, 5 mg/kg dose): 63% | Hydrocodone AUC [2, 20]: 47 | Hydrocodone Cmax [2, 20]: 26.6 ng/mL | Hydrocodone plus hydromorphone Cmax [2, 20]: 32.9 ng/mL | Hydromorphone AUC, Percent HM relative to hydrocodone bitartrate [2, 20]: 51% | Hydromorphone Cmax [2, 20]: 10.4 ng/mL | Hydromorphone Cmax, Percent HM relative to hydrocodone bitartrate [2, 20]: 77% | Mean hydrocodone plus hydromorphone concentration [2, 21]: 0 ng/mL | Mean hydromorphone concentration [2, 21]: 0 ng/mL | Mean hydrocodone concentration ([2]; oral, 5 mg/kg hydrocodone base content, 0 Hours): 0 ng/mL | Mean hydrocodone concentration ([2]; oral, 5 mg/kg hydrocodone base content, 0.1 Hours): 26.6 ng/mL | Mean hydrocodone concentration ([2]; oral, 5 mg/kg hydrocodone base content, 0.5 Hours): 22.5 ng/mL | Mean hydrocodone concentration ([2]; oral, 5 mg/kg hydrocodone base content, 1.0 Hours): 15.1 ng/mL | Mean hydrocodone concentration ([2]; oral, 5 mg/kg hydrocodone base content, 2.0 Hours): 10.3 ng/mL | Mean hydrocodone concentration ([2]; oral, 5 mg/kg hydrocodone base content, 4.0 Hours): 3.6 ng/mL | Mean hydrocodone plus hydromorphone concentration [2, 22]: 27.1 ng/mL | Mean hydromorphone concentration [2, 22]: 0.49 ng/mL | Mean hydrocodone plus hydromorphone concentration [2, 23]: 32.9 ng/mL | Mean hydromorphone concentration [2, 23]: 10.41 ng/mL | Mean hydrocodone plus hydromorphone concentration [2, 24]: 19.9 ng/mL | Mean hydromorphone concentration [2, 24]: 4.82 ng/mL | Mean hydrocodone plus hydromorphone concentration [2, 25]: 13.5 ng/mL | Mean hydromorphone concentration [2, 25]: 3.17 ng/mL | Mean hydrocodone plus hydromorphone concentration [2, 26]: 4.7 ng/mL | Mean hydromorphone concentration [2, 26]: 1.07 ng/mL | Percent HC + HM (AUC) ([2]; oral, 5 mg/kg): 20% | Percent HC + HM (Cmax) ([2]; oral, 5 mg/kg): 4% | Hydrocodone AUC [2, 27]: 135.0 | Hydrocodone Cmax [2, 27]: 41.4 ng/mL | Hydrocodone plus hydromorphone Cmax [2, 27]: 49.4 ng/mL | Hydromorphone AUC, Percent HM relative to hydrocodone bitartrate [2, 27]: 33% | Hydromorphone Cmax [2, 27]: 16.2 ng/mL | Hydromorphone Cmax, Percent HM relative to hydrocodone bitartrate [2, 27]: 37% | Mean hydrocodone plus hydromorphone concentration [2, 28]: 0 ng/mL | Mean hydromorphone concentration [2, 28]: 0 ng/mL | Mean hydrocodone concentration ([2]; oral, 25 mg/kg hydrocodone base content, 0 Hours): 0 ng/mL | Mean hydrocodone concentration ([2]; oral, 25 mg/kg hydrocodone base content, 0.1 Hours): 41.4 ng/mL | Mean hydrocodone concentration ([2]; oral, 25 mg/kg hydrocodone base content, 0.5 Hours): 23.3 ng/mL | Mean hydrocodone concentration ([2]; oral, 25 mg/kg hydrocodone base content, 1.0 Hours): 31.0 ng/mL | Mean hydrocodone concentration ([2]; oral, 25 mg/kg hydrocodone base content, 2.0 Hours): 43.9 ng/mL | Mean hydrocodone concentration ([2]; oral, 25 mg/kg hydrocodone base content, 4.0 Hours): 25.0 ng/mL | Mean hydrocodone plus hydromorphone concentration [2, 29]: 49.4 ng/mL | Mean hydromorphone concentration [2, 29]: 8.00 ng/mL | Mean hydrocodone plus hydromorphone concentration [2, 30]: 33.7 ng/mL | Mean hydromorphone concentration [2, 30]: 10.35 ng/mL | Mean hydrocodone plus hydromorphone concentration [2, 31]: 43.7 ng/mL | Mean hydromorphone concentration [2, 31]: 12.70 ng/mL | Mean hydrocodone plus hydromorphone concentration [2, 32]: 60.1 ng/mL | Mean hydromorphone concentration [2, 32]: 16.22 ng/mL | Mean hydrocodone plus hydromorphone concentration [2, 33]: 34.0 ng/mL | Mean hydromorphone concentration [2, 33]: 8.98 ng/mL | Percent HC + HM (AUC) ([2]; oral, 25 mg/kg): 32% | Percent HC + HM (Cmax) ([2]; oral, 25 mg/kg): 10% | Peak levels and bioavailability ([2]; rat, oral, 5 mg/kg): substantially decreased
